In IntAct's records for PubMed 12084833:

B1: Regulatory protein NPR1 (Arabidopsis thaliana (Mouse-ear cress)), P93002 (parent)
chain: MDTTIDGFADSYEISSTSFVATDNTDSSIVYLAAEQVLTGPDVSALQLLSNSFESVFDSPDDFYSDAKLVLSDGREVSFHRCVLSARSSFFKSALAAAKKEKDSNNTAAVKLELKEIAKDYEVGFDSVVTVLAYVYSSRVRPPPKGVSECADENCCHVACRPAVDFMLEVLYLAFIFKIPELITLYQRHLLDVVDKVVIEDTLVILKLANICGKACMKLLDRCKEIIVKSNVDMVSLEKSLPEELVKEIIDRRKELGLEVPKVKKHVSNVHKALDSDDIELVKLLLKEDHTNLDDACALHFAVAYCNVKTATDLLKLDLADVNHRNPRGYTVLHVAAMRKEPQLILSLLEKGASASEATLEGRTALMIAKQATMAVECNNIPEQCKHSLKGRLCVEILEQEDKREQIPRDVPPSFAVAADELKMTLLDLENRVALAQRLFPTEAQAAMEIAEMKGTCEFIVTSLEPDRLTGTKRTSPGVKIAPFRILEEHQSRLKALSKTVELGKRFFPRCSAVLDQIMNCEDLTQLACGEDDTAEKRLQKKQRYMEIQETLKKAFSEDNLELGNSSLTDSTSSTSKSTGGKRSNRKLSHRRR
partner: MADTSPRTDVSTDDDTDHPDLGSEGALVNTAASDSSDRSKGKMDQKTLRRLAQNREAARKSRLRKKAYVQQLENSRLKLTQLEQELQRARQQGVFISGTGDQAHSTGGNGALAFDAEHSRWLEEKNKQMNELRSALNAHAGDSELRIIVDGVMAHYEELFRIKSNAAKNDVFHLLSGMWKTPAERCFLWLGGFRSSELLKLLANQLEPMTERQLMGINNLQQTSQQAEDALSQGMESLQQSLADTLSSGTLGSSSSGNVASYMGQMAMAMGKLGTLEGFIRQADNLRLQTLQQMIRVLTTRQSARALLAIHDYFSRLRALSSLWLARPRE

Variants of: B1
Settings: with tga2_arath TGA2, P43273
For MDTTIDGFADSYEISSTSFVATDNTDSSIVYLAAEQVLTGPDVSALQLLSNSFESVFDSPDDFYSDAKLVLSDGREVSFHRCVLSARSSFFKSALAAAKKEKDSNNTAAVKLELKEIAKDYEVGFDSVVTVLAYVYSSRVRPPPKGVSEYADENCCHVACRPAVDFMLEVLYLAFIFKIPELITLYQRHLLDVVDKVVIEDTLVILKLANICGKACMKLLDRCKEIIVKSNVDMVSLEKSLPEELVKEIIDRRKELGLEVPKVKKHVSNVHKALDSDDIELVKLLLKEDHTNLDDACALHFAVAYCNVKTATDLLKLDLADVNHRNPRGYTVLHVAAMRKEPQLILSLLEKGASASEATLEGRTALMIAKQATMAVECNNIPEQCKHSLKGRLCVEILEQEDKREQIPRDVPPSFAVAADELKMTLLDLENRVALAQRLFPTEAQAAMEIAEMKGTCEFIVTSLEPDRLTGTKRTSPGVKIAPFRILEEHQSRLKALSKTVELGKRFFPRCSAVLDQIMNCEDLTQLACGEDDTAEKRLQKKQRYMEIQETLKKAFSEDNLELGNSSLTDSTSSTSKSTGGKRSNRKLSHRRR [C150Y], the “effect of a mutation on the interaction” value was “disrupting interaction”.
